Data taken from patent publication US20200376136A1 (Regeneron, published 2020).

Biological target: T1, human CD3 (human, UniProt P07766 23-207; P04234 22-171)
T1 construct: As expressed on Jurkat cells or human T cells within the T cell receptor complex; also called hCD3
Assay: FACS assays

T1 sequence (P07766 23-207 limits assumed, chain 1 of 2): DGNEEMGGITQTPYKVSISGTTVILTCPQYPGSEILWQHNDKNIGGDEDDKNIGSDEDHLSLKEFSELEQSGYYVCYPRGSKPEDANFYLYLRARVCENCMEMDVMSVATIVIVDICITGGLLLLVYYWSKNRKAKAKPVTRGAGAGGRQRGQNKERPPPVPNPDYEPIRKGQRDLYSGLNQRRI
T1 sequence (P04234 22-171 limits assumed, chain 2 of 2): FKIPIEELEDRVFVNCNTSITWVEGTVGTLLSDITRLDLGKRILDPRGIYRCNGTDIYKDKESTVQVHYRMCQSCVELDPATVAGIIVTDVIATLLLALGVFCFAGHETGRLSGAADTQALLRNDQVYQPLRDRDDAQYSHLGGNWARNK

B1: CD3-VH-G (antibody, V domains shown)
VH: EVQLVESGGGLVQPGRSLRLSCAASGFTFDDYSMHWVRQAPGKGLEWVSGISWNSGSKGYADSVKGRFTISRDNAKNSLYLQMNSLRAEDTALYYCAKYGSGYGKFYHYGLDVWGQGTTVTVSS
VL: DIQMTQSPSSLSASVGDSVTITCRASQSINNYLNWYQQKPGKAPKLLIYTASSLLSGVPSRFSGSGSGTDFTLTISGLHPEDFATYFCQQSFSTPPITFGQGTRLDIK
notes: CD3-VH-P engineered to germline frameworks
  binding result: binds
